# Experimental data taken from paper PMC4575908.
# Tested on: O=C(O)[C@H]1O[C@@H](Oc2ccc([N+](=O)[O-])cc2)[C@H](O)[C@@H](O)[C@@H]1O
# Assay: purified protein, by the assay type
# Details: 37.0 °C
Substance,Km,kcat,kcat/Km
BfGUS (Bacteroides fragilis NCTC 9343),1900 ± 300 µM,18 ± 1 s⁻¹,9500 M⁻¹ s⁻¹
CpGUS (Clostridium perfringens str. 13),1100 ± 200 µM,2.6 ± 0.6 s⁻¹,2400 M⁻¹ s⁻¹
